The target of the data set is T1, HRBP (1-81), amino acids 1 to 81 of the Nogo-B receptor (NgBR) family protein HRBP from Hevea brasiliensis.
T1 chain: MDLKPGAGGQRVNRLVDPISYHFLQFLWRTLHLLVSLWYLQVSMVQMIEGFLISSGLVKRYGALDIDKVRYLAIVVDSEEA

B1: HRT1-linker-LDAP1 fusion protein (protein)
chain: GFLALLNVLTYCYELGVKYATIYAFSIDNFRRKPHEVQYVMDLMLEKIEGMIMEESIINAYDICVRFVGNLKLLSEPVKTAADKIMRATANNSKCVLLIAVCYTSTDEIVHAVEESSELNSNEVCNNQELEEANATGSGTVIQIENMESYSGIKLVDLEKNTYINPYPDVLIRTSGETRLSNYLLWQTTNCILYSPHALWPEIGLRHVVWAVINFQRHYSYLEKHKEYLKTGNSADGGGGSGGSGGSGGGSTQGMAEADAKLQNDTVQEDEVTTLKYLEFVQIAAVHAVVIVSSIYDFAKDNSGPLKPGVQTVEGTVKTVMSPVYEKIQDIPLELLKFADRKVDGFVQEVDRHVPVLVKQASSQAFSAAHRAPEVARSIKSELNRVGVVDTATEMTKAAYATLEPTAKDLYIRYEPVAEHYAVSAWRSLNRLPLFSEVAHIVVPTAAYWTDKYNKGVRYMEVKGFGVASYMPLVPTERIAKVFGEREEEIVLEMSPMTTSEVVN
For the protein B1, the Enzymatic activity (prenyl chain elongation, radioactivity of [4-14C]IPP incorporated, dpm) came to 900 dpm.

B2: LDAP1-linker-HRT1 fusion protein (protein)
chain: MAEADAKLQNDTVQEDEVTTLKYLEFVQIAAVHAVVIVSSIYDFAKDNSGPLKPGVQTVEGTVKTVMSPVYEKIQDIPLELLKFADRKVDGFVQEVDRHVPVLVKQASSQAFSAAHRAPEVARSIKSELNRVGVVDTATEMTKAAYATLEPTAKDLYIRYEPVAEHYAVSAWRSLNRLPLFSEVAHIVVPTAAYWTDKYNKGVRYMEVKGFGVASYMPLVPTERIAKVFGEREEEIVLEMSPMTTSEVVNTGNSADGGGGSGGSGGSGGGSTQGGFLALLNVLTYCYELGVKYATIYAFSIDNFRRKPHEVQYVMDLMLEKIEGMIMEESIINAYDICVRFVGNLKLLSEPVKTAADKIMRATANNSKCVLLIAVCYTSTDEIVHAVEESSELNSNEVCNNQELEEANATGSGTVIQIENMESYSGIKLVDLEKNTYINPYPDVLIRTSGETRLSNYLLWQTTNCILYSPHALWPEIGLRHVVWAVINFQRHYSYLEKHKEYLK
Consider B2, for which the Enzymatic activity (prenyl chain elongation, radioactivity of [4-14C]IPP incorporated, dpm) came out at 837 dpm.
